Experimental findings from PMC5727935, “The distinctive cell division interactome of Neisseria gonorrhoeae” (BMC Microbiology, 2017) are described below.

For data set [1], the target named is N. gonorrhoeae FtsK, bacterial two-hybrid fusion (Neisseria gonorrhoeae CH811). As to the kind of experiment: two-hybrid; bacterial two-hybrid (Di Lallo): fusions to P22 and 434 repressor ends in E. coli R721, 34 °C; residual β-galactosidase activity against R721 without plasmids (2504 ± 34 Miller units); less than 50% counts as a positive interaction.
Data set [2] has as its target N. gonorrhoeae FtsW, bacterial two-hybrid fusion (Neisseria gonorrhoeae CH811) (UniProt B4RQC6). The description is as above.
Data set [3] deals with T1, N. gonorrhoeae FtsW, bacterial two-hybrid fusion (Neisseria gonorrhoeae CH811, UniProt B4RQC6 1-462).
T1 construct: FtsW of Neisseria gonorrhoeae CH811, amplified from genomic DNA with primers P9/P10 (start codon to stop codon); Cloned in both vectors (pcIp22 and pcI434); each fusion carries one of the two repressor ends; also called FtsWNg; pcIp22-W; source: bacterial two-hybrid fusion, expressed in E. coli R721
T1 sequence (looked up): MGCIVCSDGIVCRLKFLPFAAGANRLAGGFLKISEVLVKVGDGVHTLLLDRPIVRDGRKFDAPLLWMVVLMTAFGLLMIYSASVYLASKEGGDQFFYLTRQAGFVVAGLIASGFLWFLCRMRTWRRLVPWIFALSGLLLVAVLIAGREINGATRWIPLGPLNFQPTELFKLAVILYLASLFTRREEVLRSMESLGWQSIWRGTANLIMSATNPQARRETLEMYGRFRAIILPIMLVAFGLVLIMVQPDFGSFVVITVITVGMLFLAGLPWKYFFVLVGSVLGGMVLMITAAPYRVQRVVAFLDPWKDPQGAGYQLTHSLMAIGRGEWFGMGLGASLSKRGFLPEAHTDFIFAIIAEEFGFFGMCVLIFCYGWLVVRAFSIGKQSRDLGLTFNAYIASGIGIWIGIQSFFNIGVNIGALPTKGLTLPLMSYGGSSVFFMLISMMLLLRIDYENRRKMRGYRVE
Described as above. To be noted: partners not purified.

Data set [4] deals with T2, N. gonorrhoeae FtsQ, bacterial two-hybrid fusion (Neisseria gonorrhoeae CH811, UniProt Q5F6M1 1-242).
T2 construct: FtsQ of Neisseria gonorrhoeae CH811, amplified from genomic DNA with primers P5/P6 (start codon to stop codon); Cloned in both vectors (pcIp22 and pcI434); each fusion carries one of the two repressor ends; also called FtsQNg; pcIp22-Q; source: bacterial two-hybrid fusion, expressed in E. coli R721
T2 sequence (looked up): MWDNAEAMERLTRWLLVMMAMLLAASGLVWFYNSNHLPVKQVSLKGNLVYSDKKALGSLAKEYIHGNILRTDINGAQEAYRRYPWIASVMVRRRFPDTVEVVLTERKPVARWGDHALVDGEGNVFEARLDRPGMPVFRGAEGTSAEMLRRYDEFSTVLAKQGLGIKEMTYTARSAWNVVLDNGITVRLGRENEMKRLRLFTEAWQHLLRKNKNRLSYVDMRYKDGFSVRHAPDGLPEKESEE
The description is as above. To be noted: partners not purified.

For data set [5], the target named is N. gonorrhoeae FtsN, bacterial two-hybrid fusion (Neisseria gonorrhoeae CH811). The description is as above.
Data set [6] addresses N. gonorrhoeae FtsZ, bacterial two-hybrid fusion (Neisseria gonorrhoeae) (UniProt P72079). The data set is described as above.
In data set [7] the target is His-FtsNNg (ligand of the SPR) (Neisseria gonorrhoeae). The experiment in a line: SPR; Bio-Rad XPR36, ProteOn HTE chip activated with NiSO4; His-FtsQNg or His-FtsNNg immobilised at 200 nM; two-fold dilutions of FtsANg in PBST (0.1% BSA, 0.05% Tween-20, pH 7.9), 30 μl/min, 120 s, then 300 s buffer; Langmuir 1:1 kinetic fit. For orientation: SPR reads the build-up and loss of mass on a sensor chip optically.

Data set [8] deals with the molecule itself. As to the kind of experiment: 90° light scattering + negative-stain electron microscopy; FtsZNg about 6 μM in MES buffer (50 mM MES-NaOH, 50 mM KCl, 10 mM MgCl2, pH 7.5), 2 mM GTP, 30 °C; polymerisation.
For data set [9], the target named is His-FtsANg (Neisseria gonorrhoeae CH811) (UniProt Q5F6M2). The experiment in a line: SPR; FtsANg immobilised on the HTE chip; polymerized FtsZNg (with GTP) at 6 and 12 μM injected for 120 s, 300 s dissociation; MES buffer with 0.1% BSA, 0.05% Tween-20, 1 mM ATP, pH 7.5; Langmuir 1:1 kinetic fit.
The target of data set [10] is T3, FtsANg (analyte of the SPR with FtsQNg and FtsNNg) (Neisseria gonorrhoeae CH811, UniProt Q5F6M2 1-414).
T3 construct: FtsA of Neisseria gonorrhoeae CH811; GST in PBST as the negative-control analyte hints at GST-FtsANg (surmise); source: E. coli C41 (DE3), purified
T3 sequence (looked up): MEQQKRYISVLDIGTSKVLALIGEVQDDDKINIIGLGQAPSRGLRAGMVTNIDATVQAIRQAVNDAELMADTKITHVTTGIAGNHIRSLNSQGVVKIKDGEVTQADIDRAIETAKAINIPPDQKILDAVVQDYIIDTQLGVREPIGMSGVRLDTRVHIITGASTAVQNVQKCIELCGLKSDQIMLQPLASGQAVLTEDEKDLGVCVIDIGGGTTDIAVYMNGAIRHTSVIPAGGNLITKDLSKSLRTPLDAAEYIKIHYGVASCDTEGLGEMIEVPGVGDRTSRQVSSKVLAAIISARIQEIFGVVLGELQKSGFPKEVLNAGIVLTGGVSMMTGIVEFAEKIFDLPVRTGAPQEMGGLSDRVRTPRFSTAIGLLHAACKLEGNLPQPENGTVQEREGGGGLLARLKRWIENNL
As to the kind of experiment: SPR; Bio-Rad XPR36, ProteOn HTE chip activated with NiSO4; His-FtsQNg or His-FtsNNg immobilised at 200 nM; two-fold dilutions of FtsANg in PBST (0.1% BSA, 0.05% Tween-20, pH 7.9), 30 μl/min, 120 s, then 300 s buffer; Langmuir 1:1 kinetic fit. To be noted: both partners purified.

Regarding “N. gonorrhoeae FtsN, bacterial two-hybrid fusion (natural protein)”, the residual β-galactosidase activity in data set [1] was found to be 31%.

Consider “N. gonorrhoeae FtsI, bacterial two-hybrid fusion (natural protein)”, for which the residual β-galactosidase activity in data set [2] was found to be 35%.

B1: N. gonorrhoeae FtsA, bacterial two-hybrid fusion (natural protein, Neisseria gonorrhoeae CH811, UniProt Q5F6M2 1-414, looked up)
chain: T3 sequence (looked up)
notes: FtsA of Neisseria gonorrhoeae CH811, amplified from genomic DNA with primers P1/P2 (start codon to stop codon); ends at Leu414 by the limits of the truncations; Cloned in both vectors (pcIp22 and pcI434); each fusion carries one of the two repressor ends; also called FtsANg; pcIp22-A; source: bacterial two-hybrid fusion, expressed in E. coli R721
Turning to B1, the “residual β-galactosidase activity” value in [3] worked out at 45%; in data set [4] it was 48%; in data set [1] it was 30%; in [5] it was 24%; in data set [6], 40%.

B2: FtsANg (analyte of the SPR with FtsQNg and FtsNNg) (natural protein)
chain: T3 sequence (looked up)
By Kd is commonly meant the concentration at which binding is half-saturated. Low readings indicate higher affinity, high ones lower affinity. By koff is commonly meant the rate constant with which the complex falls apart. Read a low koff as a long-lived complex. By kon is commonly meant a measure of how fast the partners come together. The low end stands for slow association, the high end for fast association. In data set [7], B2 displayed a Kd of 53.3 nM, an off-rate constant (koff) of 0.00616 s⁻¹ and a kon of 115000 M⁻¹ s⁻¹.

B3: FtsZNg, His tag cleaved with thrombin (natural protein, Neisseria gonorrhoeae CH811, UniProt P72079 1-392, looked up)
chain: MEFVYDVAESAVSPAVIKVIGLGGGGCNAINNMVANNVRSVEFISANTDAQSLAKNHAAKRIQLGTNLTRGLGAGANPDIGRAAAQEDREAIEEAIRGANMLFITTGMGGGTGTGSAPVVAEIAKSLGILTVAVVTRPFSYEGKRVHVAQAGLEQLKEHVDSLIIIPNDKLMTALGEDVTMREAFRAADNVLRDAVAGISEVVTCPSEIINLDFADVKTVMSNRGIAMMGSGYAQGIDRARMATDQAISSPLLDDVTLDGARGVLVNITTAPGCLKMSELSEVMKIVNQSAHPDLECKFGAAEDETMSEDAIRITIIATGLKEKGAVDPTPEREVEAVAPSKQEQSHIVEGMIRTNRGIRTMNLTAADFDNQSVLDDFEIPAILRRQHNSDK
notes: FtsZ of Neisseria gonorrhoeae CH811, full-length ftsZ (primers P19/P20) cloned BglII/EcoRI into pET30a; also called polymerized FtsZNg; not shown: His6, N-terminal, cleaved
B3: in data set [8], the binding result is “binds”. In [9], this molecule showed a Kd of 14900 nM, a koff of 0.00531 s⁻¹ and a kon of 356 M⁻¹ s⁻¹.

B4: N. gonorrhoeae FtsZ, bacterial two-hybrid fusion (natural protein, Neisseria gonorrhoeae, UniProt P72079 1-392, looked up)
chain: B3 chain
notes: FtsZ of Neisseria gonorrhoeae; Cloned in both vectors (pcIp22 and pcI434); each fusion carries one of the two repressor ends; also called FtsZNg; pcIp22-Z; source: bacterial two-hybrid fusion, expressed in E. coli R721
On to B4, for which the “residual β-galactosidase activity” value in data set [3] amounted to 39%; in data set [1] it was 41%.

B5: His-FtsQNg (natural protein, Neisseria gonorrhoeae CH811, UniProt Q5F6M1 1-242, looked up)
chain: T2 sequence (looked up)
notes: FtsQ of Neisseria gonorrhoeae CH811, full-length ftsQ (primers P17/P18) cloned BglII/EcoRI into pET30a; also called pETQ
On to B5, for which, in data set [10], binding was characterised by a dissociation constant (Kd) of 15.1 nM, the koff turned out to be 0.00409 s⁻¹ and the kon was 272000 M⁻¹ s⁻¹.
